According to publication PMC12677907:

Biological target: BoABA2, purified protein (GST pull-down and enzyme assay) (cabbage (Brassica oleracea var. capitata))

BoABA2 catalytic activity in converting xanthoxin to abscisic aldehyde in vitro, co-incubated with BoCML37 in the presence of Ca2+, relative to BoABA2 alone: 3.88 fold
Substance: BoCML37, purified protein (GST pull-down and enzyme assay) (natural protein)
